Tests used:
[1] = molecular target: chimeric hexon of the Ad5 vector Ad5:H6.2 (Ad6 hexon section with HVR7 mutations, on virions) (human adenovirus 5 | human adenovirus 6) (UniProt P04133); experiment: SPR; Biacore T200; about 300 to 5,000 RU of Ad virions immobilised on a CM5 chip, coagulation factors flowed over at four concentrations, 50 uL/min; running buffer 10 mM HEPES, 150 mM NaCl, 1 mM CaCl2, 0.5 mM MgCl2, 0.1% BSA, 0.05% polysorbate 20, pH 7.4; regeneration with 3 mM EDTA; global fit to a 1:1 kinetic interaction model, double referencing
[2] = molecular target: chimeric hexon of the Ad5 vector Ad5:H1.1 (Ad5 hexon with residues 112-593 from Ad1 hexon, on virions) (human adenovirus 5 | human adenovirus 1) (UniProt P04133); experiment: as above
[3] = molecular target: chimeric hexon of the Ad5 vector Ad5:H6.1 (Ad5 hexon with residues 112-593 from Ad6 hexon, on virions) (human adenovirus 5 | human adenovirus 6) (UniProt P04133); experiment: as above
[4] = molecular target: hexon of wild-type human adenovirus type 1 (on virions) (human adenovirus 1); experiment: as above
[5] = molecular target: chimeric hexon of the Ad5 vector Ad5:H57.1 (Ad5 hexon with residues 112-593 from Ad57 hexon, on virions) (human adenovirus 5 | human adenovirus 57) (UniProt P04133); experiment: as above
[6] = molecular target: chimeric hexon of the Ad5 vector Ad5:H6.3 (Ad6 hexon section with HVR7 mutations, on virions) (human adenovirus 5 | human adenovirus 6) (UniProt P04133); experiment: as above
[7] = molecular target: chimeric hexon of Ad5:H6.3 (Ad5 vector, hexon residues 112-593 from Ad6 hexon, HVR7 IGNTETF), on the virion (human adenovirus type 5 | human adenovirus type 6) (UniProt P04133); experiment: SPR; Biacore T200; about 300 to 5,000 RU of Ad virions immobilised on a CM5 chip, coagulation factors flowed over at four concentrations, 50 uL/min; 10 mM HEPES, 150 mM NaCl, 1 mM CaCl2, 0.5 mM MgCl2, 0.1% BSA, 0.05% polysorbate 20, pH 7.4; global fit to a 1:1 kinetic interaction model, double referencing
[8] = molecular target: chimeric hexon of Ad5:H1.1 (Ad5 vector, hexon residues 112-593 from Ad1 hexon), on the virion (human adenovirus type 5 | human adenovirus type 1) (UniProt P04133); experiment: as above
[9] = molecular target: chimeric hexon of Ad5:H6.1 (Ad5 vector, hexon residues 112-593 from Ad6 hexon), on the virion (human adenovirus type 5 | human adenovirus type 6) (UniProt P04133); experiment: as above
[10] = molecular target: chimeric hexon of Ad5:H57.1 (Ad5 vector, hexon residues 112-593 from Ad57 hexon), on the virion (human adenovirus type 5 | human adenovirus type 57) (UniProt P04133); experiment: as above
[11] = molecular target: chimeric hexon of Ad5:H6.2 (Ad5 vector, hexon residues 112-593 from Ad6 hexon, HVR7 IGNTDTF), on the virion (human adenovirus type 5 | human adenovirus type 6) (UniProt P04133); experiment: as above

## bovine prothrombin (coagulation factor II) (from UniProt P00735 44-625) (natural protein)
[1]
  Kd: 950 nM
  koff: 0.0291 s⁻¹
  kon: 30500 M⁻¹ s⁻¹
[2]
  Kd: 34 nM
  koff: 0.00224 s⁻¹
  kon: 65800 M⁻¹ s⁻¹
[3]
  Kd: 67 nM
  koff: 0.0039 s⁻¹
  kon: 58200 M⁻¹ s⁻¹
[4]
  Kd: 37 nM
  koff: 0.00193 s⁻¹
  kon: 52800 M⁻¹ s⁻¹
[5]
  Kd: 27 nM
  koff: 0.000993 s⁻¹
  kon: 37400 M⁻¹ s⁻¹
[6]
  Kd: 2500 nM
  koff: 0.0729 s⁻¹
  kon: 29200 M⁻¹ s⁻¹
[7]
  Kd: 2500 nM
[8]
  Kd: 34 nM
[9]
  Kd: 67 nM
[10]
  Kd: 27 nM
[11]
  Kd: 950 nM
